± gives the standard deviation.
Assay: protein stability index of a GFP-peptide fusion (GPS, HEK-293T) (PSI 1-6); higher = more stable
[1] = treatment: DMSO, c terminus: a fixed tail appended
[2] = treatment: MLN4924 1 uM, 8 h, c terminus: a fixed tail appended
[3] = treatment: DMSO, c terminus: native
[4] = treatment: MLN4924 1 uM, 8 h, c terminus: native
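Further: 24-mer peptide tiles fused after GFP, lentivirally expressed, FACS-sorted into six equal bins by GFP/DsRed ratio, decoded by Illumina sequencing, PSI is the read-weighted mean bin number.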

Sequence VATGSQQSLAQPLPGNTTEATPRS has a protein stability index [1] of 5.42 ± 0.44 and a protein stability index [2] of 5.28 ± 0.43.
VCCNPYHFSRLCGPESPPPPYSRL [SMAD6] gave a protein stability index [1] of 2.15 ± 0.36 and a protein stability index [2] of 2.15 ± 0.18.
For VCDSCYDSIKDEDRTSLATFHEGK [WDFY1], the protein stability index [1] was 4.62 ± 0.28 and the protein stability index [2] was 4.83 ± 0.26.
For VDQKLELNIVPRTKVVYLASETFN [PI4K2A], the protein stability index [1] was 2.38 ± 0.23 and the protein stability index [2] was 2.51 ± 0.25.
Sequence VEEPSSKDVMEKREDSKEAEKSGE [CHGA] has a protein stability index [1] of 5.5 ± 0.36 and a protein stability index [2] of 5.58 ± 0.32.
VEKSSPATSLFVELDEEEVKAATT [BCL2L13] showed a protein stability index [1] of 5.53 ± 0.22 and a protein stability index [2] of 5.46 ± 0.2.
Work on VELLLSHADCDRRSRIEALELLGA [FEM1B] yielded a protein stability index [1] of 2.7 ± 0.19 and a protein stability index [2] of 2.78 ± 0.21.
In the case of VENNRRDVEAWFNTQTEELNQQVV [KRT36], the protein stability index [1] is reported as 4.67 ± 0.27 and the protein stability index [2] is reported as 4.65 ± 0.14.
Work on VFCPLDPPPPYEAVVSQMDQEQGS [FAM189A2] yielded a protein stability index [1] of 4.65 ± 0.13 and a protein stability index [2] of 4.76 ± 0.2.
Work on VGKVEELIESEAPPKASEQETAKE [C18orf25] yielded a protein stability index [1] of 5.53 ± 0.28 and a protein stability index [2] of 5.6 ± 0.27.
VGNNHESWGWDLGRNRLYHDGKNQ [SPSB1] showed a protein stability index [1] of 3.83 ± 0.33 and a protein stability index [2] of 3.87 ± 0.42.
VGPLAQDPQSPMAGLRWLDSWDF [POMT2] showed a protein stability index [3] of 3.34 ± 0.38 and a protein stability index [4] of 3.36 ± 0.3.
Sequence VGSDDLERIEARLATLEGDDPSLR [PSD2] has a protein stability index [1] of 5.32 ± 0.17 and a protein stability index [2] of 5.42 ± 0.17.
Work on VGSLSWLRKQLQPTHCKYEGPRKA yielded a protein stability index [1] of 2.87 ± 0.24 and a protein stability index [2] of 2.9 ± 0.21.
For VHPTKHEVHFLHEESILERVQQHI [MLH1], the protein stability index [1] was 3.18 ± 0.16 and the protein stability index [2] was 3.28 ± 0.15.
Work on VHVISLHIWELSSIKNSLKVAAIS [PTGFR] yielded a protein stability index [1] of 2.86 ± 0.46 and a protein stability index [2] of 3.07 ± 0.32.
For VILIFHCEFSSERGPRMCRFIRER [CDC25B], the protein stability index [1] was 2.78 ± 1.1 and the protein stability index [2] was 2.64 ± 0.83.
In the case of VKAKEQIENYKKQTRNGLGKDHEI [FUT8], the protein stability index [1] is reported as 4.59 ± 0.17 and the protein stability index [2] is reported as 4.76 ± 0.16.
For VKEISDKISKEEMVRRLKMVVKTF [PDS5B], the protein stability index [2] was 2.24 ± 0.91.
For VKVLAFTSIGDGPLSSDIQVITQT [PTPRD], the protein stability index [1] was 2.62 ± 0.48 and the protein stability index [2] was 2.31 ± 0.37.
Work on VLKKQDAFYKEQLARLEERSSEFY [CHCHD3] yielded a protein stability index [1] of 3.45 ± 0.34 and a protein stability index [2] of 3.48 ± 0.12.
VLRCQLSAEEVRFPVSVTQQSPAA [C2CD2L] showed a protein stability index [1] of 3.3 ± 0.34 and a protein stability index [2] of 3.45 ± 0.23.
Sequence VLVKDNGLGCKDLDLIFHVALPTE [TENT5C] has a protein stability index [1] of 2.58 ± 0.57 and a protein stability index [2] of 2.82 ± 0.73.
With VNLLHIESRKSKRRNSEFEIFVDC [TPH1] the protein stability index [1] was 2.26 ± 0.52 and the protein stability index [2] was 2.4 ± 0.35.
In the case of VPGLLLSYLMLVTVMMWPLAVYHR [RETREG3], the protein stability index [1] is reported as 3.33 ± 0.44 and the protein stability index [2] is reported as 3 ± 0.31.
With VPKNYVVVLSDGPALHPAHAPQIS [NCK2] the protein stability index [1] was 2.42 ± 0.17 and the protein stability index [2] was 2.61 ± 0.31.
Work on VPLGPLGETYCEEHGEKIYFFCEN [TRIM15] yielded a protein stability index [1] of 3.42 ± 0.15 and a protein stability index [2] of 3.54 ± 0.36.
In the case of VPRYTGVAPQDQCKLTCQAQALGY [ADAMTS4], the protein stability index [1] is reported as 2.4 ± 0.47 and the protein stability index [2] is reported as 2.65 ± 0.36.
Sequence VPTPKSHLQLLGAVCMFLASKLKE [CCND2] has a protein stability index [1] of 2.11 ± 0.28 and a protein stability index [2] of 1.92 ± 0.39.
In the case of VPYCERDYEKMFGTKCHGCDFKID [PDLIM7], the protein stability index [1] is reported as 3.2 ± 0.55 and the protein stability index [2] is reported as 3.46 ± 0.22.
VQELVLEDLQDGDVRMGGSFRGAF [NET1] gave a protein stability index [1] of 3.38 ± 0.18 and a protein stability index [2] of 3.47 ± 0.12.
Sequence VQETNKQPPQTVNPIGHLPESLTK [ATF4] has a protein stability index [1] of 4.79 ± 0.24 and a protein stability index [2] of 4.86 ± 0.2.
VQGGSEAWGPGTLAAAPEGLEDAG [TEX19] gave a protein stability index [1] of 5.12 ± 0.36 and a protein stability index [2] of 5.41 ± 0.2.
Work on VRDQGPSIPLTPGDTPIRKKEELL [FBF1] yielded a protein stability index [1] of 5.26 ± 0.21 and a protein stability index [2] of 5.33 ± 0.12.
Work on VRLMRQLLVINESIESIKWMIEEK [LURAP1L] yielded a protein stability index [1] of 2.75 ± 0.35 and a protein stability index [2] of 2.86 ± 0.45.
With VRRRYSDFEWLRSELERESKVVVP [SNX3] the protein stability index [1] was 2.17 ± 0.12 and the protein stability index [2] was 2.33 ± 0.17.
VRSGIVEYLSLVKGGQDVKKKVHL [PRIM1] gave a protein stability index [1] of 2.43 ± 0.26 and a protein stability index [2] of 2.28 ± 0.44.
With VRVVFFPLFSNWWIQVTSLRIFVW [PHTF1] the protein stability index [1] was 2.79 ± 0.69 and the protein stability index [2] was 2.87 ± 0.77.
Sequence VSGDYYPIIYFNDYWNLQKDYYPI [CLPTM1] has a protein stability index [1] of 3.03 ± 0.64 and a protein stability index [2] of 3.1 ± 0.87.
In the case of VSKVTGWCRDRLLGHREPSAHPVE [TMEM175], the protein stability index [1] is reported as 3.21 ± 0.22 and the protein stability index [2] is reported as 3.33 ± 0.099.
For VSLRYSGATAASETLSGHGPLAQP [ADAMTS4], the protein stability index [1] was 3.08 ± 0.15 and the protein stability index [2] was 3.21 ± 0.066.
VSSDGTLKYMEVTLRPTDSQSHCY [PCDHGC5] gave a protein stability index [1] of 2.8 ± 0.38 and a protein stability index [2] of 2.65 ± 0.23.
Sequence VTDEEIESLMKDGDKNNDGRIDFD [TNNC2] has a protein stability index [1] of 5.52 ± 0.14 and a protein stability index [2] of 5.46 ± 0.3.
VTKMFQKIQDLIDDKDALVFVLID [TRIP13] gave a protein stability index [1] of 2.72 ± 0.63 and a protein stability index [2] of 2.47 ± 0.17.
VVEEELFHQQGTPRASNRSCAIM [LMNB1] gave a protein stability index [3] of 2.77 ± 0.3 and a protein stability index [4] of 3.16 ± 0.4.

Source: the supplement of paper PMC10567573
